The results in this text go back to publication doi:10.1101/2020.05.05.065912.

Read-outs that look alike come from different tables or passages of the source.

Test [1] deals with BRS-Myosin VI Tail-mRFP (UniProt Q9UM54). The test can be described thus: FRET or BRET.
Test [2] shares this target. The test can be described thus: FRET or BRET. This is another data set of the same source. (BRET reads energy transfer from a luciferase to a nearby fluorophore.)

Sequence of UniProt Q9UM54 (Q9UM54 whole entry): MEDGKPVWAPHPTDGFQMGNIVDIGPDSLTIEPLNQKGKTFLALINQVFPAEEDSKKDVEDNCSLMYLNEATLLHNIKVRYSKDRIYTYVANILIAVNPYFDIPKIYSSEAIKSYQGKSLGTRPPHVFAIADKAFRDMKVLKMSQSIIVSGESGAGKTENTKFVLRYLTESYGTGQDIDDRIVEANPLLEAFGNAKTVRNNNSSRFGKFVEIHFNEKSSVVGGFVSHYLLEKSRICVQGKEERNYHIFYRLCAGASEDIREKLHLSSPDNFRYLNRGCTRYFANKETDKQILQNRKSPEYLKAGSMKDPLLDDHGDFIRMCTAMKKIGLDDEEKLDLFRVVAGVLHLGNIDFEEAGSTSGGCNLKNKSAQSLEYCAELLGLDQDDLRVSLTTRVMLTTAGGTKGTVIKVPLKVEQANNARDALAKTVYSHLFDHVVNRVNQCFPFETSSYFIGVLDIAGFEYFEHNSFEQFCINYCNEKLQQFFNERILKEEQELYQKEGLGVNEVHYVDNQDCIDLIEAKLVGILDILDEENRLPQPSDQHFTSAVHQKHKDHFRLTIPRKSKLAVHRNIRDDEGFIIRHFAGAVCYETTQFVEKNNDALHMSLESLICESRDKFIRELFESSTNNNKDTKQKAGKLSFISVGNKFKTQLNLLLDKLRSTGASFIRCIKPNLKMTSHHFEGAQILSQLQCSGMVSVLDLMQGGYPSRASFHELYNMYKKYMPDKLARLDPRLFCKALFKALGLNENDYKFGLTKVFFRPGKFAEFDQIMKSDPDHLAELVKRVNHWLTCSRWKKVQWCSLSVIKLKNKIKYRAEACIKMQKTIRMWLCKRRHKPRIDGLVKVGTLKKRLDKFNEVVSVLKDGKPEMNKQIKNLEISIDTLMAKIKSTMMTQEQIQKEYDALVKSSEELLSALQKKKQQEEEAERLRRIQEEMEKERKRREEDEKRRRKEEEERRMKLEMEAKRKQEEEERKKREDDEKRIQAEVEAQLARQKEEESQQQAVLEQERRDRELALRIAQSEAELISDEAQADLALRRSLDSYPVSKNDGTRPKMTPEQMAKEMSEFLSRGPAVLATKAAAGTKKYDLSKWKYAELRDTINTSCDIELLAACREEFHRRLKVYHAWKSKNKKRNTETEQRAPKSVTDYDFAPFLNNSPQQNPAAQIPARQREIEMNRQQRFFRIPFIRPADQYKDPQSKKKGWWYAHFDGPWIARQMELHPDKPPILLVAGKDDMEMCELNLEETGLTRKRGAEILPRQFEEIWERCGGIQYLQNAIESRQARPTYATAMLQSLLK

B1: GFP-NDP52 (natural protein)
chain: MEETIKDPPTSAVLLDHCHFSQVIFNSVEKFYIPGGDVTCHYTFTQHFIPRRKDWIGIFRVGWKTTREYYTFMWVTLPIDLNNKSAKQQEVQFKAYYLPKDDEYYQFCYVDEDGVVRGASIPFQFRPENEEDILVVTTQGEVEEIEQHNKELCKENQELKDSCISLQKQNSDMQAELQKKQEELETLQSINKKLELKVKEQKDYWETELLQLKEQNQKMSSENEKMGIRVDQLQAQLSTQEKEMEKLVQGDQDKTEQLEQLKKENDHLFLSLTEQRKDQKKLEQTVEQMKQNETTAMKKQQELMDENFDLSKRLSENEIICNALQRQKERLEGENDLLKRENSRLLSYMGLDFNSLPYQVPTSDEGGARQNPGLAYGNPYSGIQESSSPSPLSIKKCPICKADDICDHTLEQQQMQPLCFNCPICDKIFPATEKQIFEDHVFCHSL
What is called Kd is the concentration at which binding is half-saturated. Lower therefore signals a tighter complex. For B1, the values for the Kd in the test with BRS-Myosin VI Tail-mRFP [1] and with BRS-Myosin VI Tail-mRFP [2] were 3900 nM and 1100 nM, respectively.
